The source of these data is PMC12394722, “Regulatory role of the N-terminal intrinsically disordered region of the DEAD-box RNA helicase DDX3X in selective RNA recognition”.

Series [1] addresses T1, DDX3X N-IDR (human, UniProt O00571 1-132). As to the kind of experiment: EMSA; 125 mM KCl; EMSA: 20 mM K-phosphate pH 7.0, 125 mM KCl, 1 mM DTT, 0.005% Tween-20, 10% glycerol (1 mM ATP-Mg for MBP-FL/Core-C), gel at room temperature; ITC: 20 mM K-phosphate pH 7.0, 50 mM KCl, 25 C; NMR: 200 mM KCl (also 120 mM), 10 C, 50 uM. The note with it: protein: recombinant, tags: His6-SUMO tag cleaved (Ulp1).

Series [2] deals with T2, MBP-FL DDX3X (human, UniProt O00571 1-662). Nature of the series: EMSA; 1 mM ATP-Mg; EMSA: 20 mM K-phosphate pH 7.0, 125 mM KCl, 1 mM DTT, 0.005% Tween-20, 10% glycerol (1 mM ATP-Mg for MBP-FL/Core-C), gel at room temperature; ITC: 20 mM K-phosphate pH 7.0, 50 mM KCl, 25 C; NMR: 200 mM KCl (also 120 mM), 10 C, 50 uM. The note with it: protein: recombinant, tags: N-terminal His6-MBP, label: 5'-FAM.

The target of another series is MBP-Core-C DDX3X (human, UniProt O00571 132-662). The description is as above. The conditions noted are these: protein: recombinant, tags: N-terminal His6-MBP, label: 5'-FAM.
The target of series [3] is T3, RR-3 fragment (human, UniProt O00571 106-127).
T3 chain: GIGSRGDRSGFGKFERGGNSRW
Nature of the series: NMR; little to no change; EMSA: 20 mM K-phosphate pH 7.0, 125 mM KCl, 1 mM DTT, 0.005% Tween-20, 10% glycerol (1 mM ATP-Mg for MBP-FL/Core-C), gel at room temperature; ITC: 20 mM K-phosphate pH 7.0, 50 mM KCl, 25 C; NMR: 200 mM KCl (also 120 mM), 10 C, 50 uM. The note with it: protein: recombinant, tags: His6-SUMO tag cleaved.

The target of series [4] is T4, RR-1 fragment (human, UniProt O00571 31-61). Described as above. The note with it: protein: recombinant, tags: His6-SUMO tag cleaved.
Series [5] concerns the target T5, RR-2 fragment (human, UniProt O00571 73-102). The series is described as above. The conditions noted are these: protein: recombinant, tags: His6-SUMO tag cleaved.
The target of series [6] is T1, DDX3X N-IDR. As to the kind of experiment: NMR; EMSA: 20 mM K-phosphate pH 7.0, 125 mM KCl, 1 mM DTT, 0.005% Tween-20, 10% glycerol (1 mM ATP-Mg for MBP-FL/Core-C), gel at room temperature; ITC: 20 mM K-phosphate pH 7.0, 50 mM KCl, 25 C; NMR: 200 mM KCl (also 120 mM), 10 C, 50 uM. The note with it: protein: recombinant, tags: His6-SUMO tag cleaved (Ulp1).
The target of series [7] is T4, RR-1 fragment. The series is described as above. The note with it: protein: recombinant, tags: His6-SUMO tag cleaved.
Series [8] deals with T5, RR-2 fragment. The series is described as above. The conditions noted are these: protein: recombinant, tags: His6-SUMO tag cleaved.
The target in series [9] is T1, DDX3X N-IDR. Nature of the series: ITC; 50 mM KCl; EMSA: 20 mM K-phosphate pH 7.0, 125 mM KCl, 1 mM DTT, 0.005% Tween-20, 10% glycerol (1 mM ATP-Mg for MBP-FL/Core-C), gel at room temperature; ITC: 20 mM K-phosphate pH 7.0, 50 mM KCl, 25 C; NMR: 200 mM KCl (also 120 mM), 10 C, 50 uM. The note with it: protein: recombinant; tags: His6-SUMO tag cleaved (Ulp1); G4 monomer.

Series [10] concerns the target T3, RR-3 fragment. Nature of the series: NMR; smaller reduction than telomeric GQ; EMSA: 20 mM K-phosphate pH 7.0, 125 mM KCl, 1 mM DTT, 0.005% Tween-20, 10% glycerol (1 mM ATP-Mg for MBP-FL/Core-C), gel at room temperature; ITC: 20 mM K-phosphate pH 7.0, 50 mM KCl, 25 C; NMR: 200 mM KCl (also 120 mM), 10 C, 50 uM. The conditions noted are these: protein: recombinant; tags: His6-SUMO tag cleaved; G4 monomer.

The target of series [11] is T2, MBP-FL DDX3X. As to the kind of experiment: EMSA; little to no shift; 1 mM ATP-Mg; EMSA: 20 mM K-phosphate pH 7.0, 125 mM KCl, 1 mM DTT, 0.005% Tween-20, 10% glycerol (1 mM ATP-Mg for MBP-FL/Core-C), gel at room temperature; ITC: 20 mM K-phosphate pH 7.0, 50 mM KCl, 25 C; NMR: 200 mM KCl (also 120 mM), 10 C, 50 uM. The conditions noted are these: protein: recombinant, tags: N-terminal His6-MBP.

Series [12] concerns the target T1, DDX3X N-IDR. As to the kind of experiment: EMSA; little to no shift; 125 mM KCl; EMSA: 20 mM K-phosphate pH 7.0, 125 mM KCl, 1 mM DTT, 0.005% Tween-20, 10% glycerol (1 mM ATP-Mg for MBP-FL/Core-C), gel at room temperature; ITC: 20 mM K-phosphate pH 7.0, 50 mM KCl, 25 C; NMR: 200 mM KCl (also 120 mM), 10 C, 50 uM. The conditions noted are these: protein: recombinant; tags: His6-SUMO tag cleaved (Ulp1); label: 3'-FAM.

Series [13] concerns the target T3, RR-3 fragment. As to the kind of experiment: NMR; EMSA: 20 mM K-phosphate pH 7.0, 125 mM KCl, 1 mM DTT, 0.005% Tween-20, 10% glycerol (1 mM ATP-Mg for MBP-FL/Core-C), gel at room temperature; ITC: 20 mM K-phosphate pH 7.0, 50 mM KCl, 25 C; NMR: 200 mM KCl (also 120 mM), 10 C, 50 uM. The note with it: protein: recombinant; tags: His6-SUMO tag cleaved; parallel G4, dimer of 2 strands.

Series [14] concerns the target T1, DDX3X N-IDR. As to the kind of experiment: ITC; 50 mM KCl; dimer concentration; EMSA: 20 mM K-phosphate pH 7.0, 125 mM KCl, 1 mM DTT, 0.005% Tween-20, 10% glycerol (1 mM ATP-Mg for MBP-FL/Core-C), gel at room temperature; ITC: 20 mM K-phosphate pH 7.0, 50 mM KCl, 25 C; NMR: 200 mM KCl (also 120 mM), 10 C, 50 uM. The conditions noted are these: protein: recombinant; tags: His6-SUMO tag cleaved (Ulp1); parallel G4, dimer of 2 strands.

[15] abbreviates: parallel G4, dimer of 2 strands.

T5 sequence (O00571 73-102): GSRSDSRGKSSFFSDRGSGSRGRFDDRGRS
T1 sequence (O00571 1-132): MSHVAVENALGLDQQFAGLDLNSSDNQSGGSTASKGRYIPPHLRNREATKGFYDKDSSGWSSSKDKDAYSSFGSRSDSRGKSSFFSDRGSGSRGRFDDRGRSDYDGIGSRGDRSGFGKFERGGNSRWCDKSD
T2 sequence (O00571 whole entry): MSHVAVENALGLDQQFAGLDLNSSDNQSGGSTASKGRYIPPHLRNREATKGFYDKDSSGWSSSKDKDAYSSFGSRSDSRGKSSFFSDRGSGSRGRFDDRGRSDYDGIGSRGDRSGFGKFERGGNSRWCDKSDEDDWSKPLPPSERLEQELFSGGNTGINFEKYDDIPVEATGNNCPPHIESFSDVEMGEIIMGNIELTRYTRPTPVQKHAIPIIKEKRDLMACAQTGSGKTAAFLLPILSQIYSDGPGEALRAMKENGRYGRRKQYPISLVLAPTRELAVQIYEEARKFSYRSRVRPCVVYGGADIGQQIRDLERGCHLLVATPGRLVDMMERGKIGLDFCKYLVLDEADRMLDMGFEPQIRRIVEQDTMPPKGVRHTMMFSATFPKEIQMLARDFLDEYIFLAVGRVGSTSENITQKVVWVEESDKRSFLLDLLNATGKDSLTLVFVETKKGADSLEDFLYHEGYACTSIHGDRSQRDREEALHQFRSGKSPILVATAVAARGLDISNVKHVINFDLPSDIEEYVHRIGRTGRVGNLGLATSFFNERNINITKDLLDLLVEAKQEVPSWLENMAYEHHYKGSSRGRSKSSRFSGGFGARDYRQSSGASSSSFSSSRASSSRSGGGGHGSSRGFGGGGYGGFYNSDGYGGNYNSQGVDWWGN
T4 sequence (O00571 31-61): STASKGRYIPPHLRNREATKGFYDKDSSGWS
Chain of MBP-Core-C DDX3X (O00571 132-662): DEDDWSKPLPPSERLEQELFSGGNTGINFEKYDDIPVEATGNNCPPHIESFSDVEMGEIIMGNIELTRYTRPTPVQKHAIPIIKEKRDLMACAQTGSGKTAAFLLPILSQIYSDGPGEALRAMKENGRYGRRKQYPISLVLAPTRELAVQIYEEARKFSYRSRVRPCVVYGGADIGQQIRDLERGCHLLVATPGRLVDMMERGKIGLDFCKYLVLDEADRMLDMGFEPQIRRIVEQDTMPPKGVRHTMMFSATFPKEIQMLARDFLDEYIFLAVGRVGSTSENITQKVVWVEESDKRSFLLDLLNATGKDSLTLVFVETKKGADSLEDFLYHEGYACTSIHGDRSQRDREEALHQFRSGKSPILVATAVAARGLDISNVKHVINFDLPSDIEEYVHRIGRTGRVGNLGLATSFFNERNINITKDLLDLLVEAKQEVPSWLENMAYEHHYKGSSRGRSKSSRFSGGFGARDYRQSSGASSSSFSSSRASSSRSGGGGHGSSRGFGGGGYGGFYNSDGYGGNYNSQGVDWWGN

With UAGGGUUAGGGU (structured_RNA) [FAM-telomeric GQ RNA], the Kd with DDX3X N-IDR [1] (label: 5'-FAM, parallel G4, dimer of 2 strands) was determined as 1000 ± 200 nM; in the series with MBP-FL DDX3X [2] (setting [15]) it was 54 ± 14 nM; with MBP-Core-C DDX3X (setting [15]), 579 ± 69 nM.
Turning to UGUAGAAAGAGCAGAUCUAGAUGC (ssRNA) [NRAS mutant RNA], the binding result in the series with RR-3 fragment [3] (GQ abolished), with RR-1 fragment [4] (GQ abolished) and with RR-2 fragment [5] (GQ abolished) was “no binding” each time.
Consider GAAAGUAGAGGGAGGGAUAGUCUAC (structured_RNA) [MITF 62-86], for which the binding result with DDX3X N-IDR [6] (G4) is “binds”.
For the molecule GCGGAGGGCGAGGCGGCGUGGACAG (structured_RNA) [RAC1 53-77], the dissociation constant (Kd) with DDX3X N-IDR [1] (label: 5'-FAM in EMSA, G4) amounted to 510 ± 80 nM.
For UGUGGGAGGGGCGGGUCUGGGUGC (structured_RNA) [NRAS GQ RNA], the binding result with RR-1 fragment [7] (G4 monomer), with RR-2 fragment [8] (G4 monomer) and with RR-3 fragment [10] was “binds” in each case. Also, the Kd in the series with DDX3X N-IDR [9] stood at 1400 nM.
Take UUUUUUUUUU (ssRNA) [poly-U10]: the binding result with RR-3 fragment [3], with RR-1 fragment [4] and with RR-2 fragment [5] was “no binding” each time.
For the molecule AGUAGGGAGCGGCGUGCCGUGGGGC (structured_RNA) [ODC1 150-174], the Kd in the series with DDX3X N-IDR [1] (label: 5'-FAM in EMSA, G4, heterogeneous) is 1970 ± 230 nM.
Take AUACCUUGUUUAUAGUACCUUCUCU (ssRNA) [MITF 7-31]: in the series with DDX3X N-IDR [6] (non-GQ), the binding result was “no binding”.
Turning to UUUUUUUUUUUU (ssRNA) [poly-U12], the binding result with MBP-FL DDX3X [11] (label: 3'-FAM) and with DDX3X N-IDR [12] was “no binding” in each case.
Take UGUAGAAAGAGCAGAUCUAGAUGC (ssRNA) [FAM-NRAS mutant RNA]: the Kd was determined as 6000 ± 800 nM with DDX3X N-IDR [1] (label: 5'-FAM, GQ abolished) and 222 ± 9 nM with MBP-FL DDX3X [2] (GQ abolished).

B1: GC-14mer dsRNA (NMR) (dsRNA)
RNA 1: GGGCGGGCCCGCCC
RNA 2: GGGCGGGCCCGCCC
Consider B1, for which the binding result is “no binding” in the series with RR-3 fragment [3] (blunt, self-complementary); “no binding” with RR-1 fragment [4] (blunt, self-complementary); “no binding” in the series with RR-2 fragment [5] (blunt, self-complementary).
Regarding UGUGGGAGGGGCGGGUCUGGGUGC (structured_RNA) [FAM-NRAS GQ RNA], the dissociation constant Kd with DDX3X N-IDR [1] (label: 5'-FAM, G4 monomer) amounted to 54 ± 12 nM; with MBP-FL DDX3X [2] (G4 monomer), 43 ± 4 nM; in the series with MBP-Core-C DDX3X (G4 monomer), 201 ± 5 nM.
As for UAGGGUUAGGGU (structured_RNA) [telomeric GQ RNA], the binding result with RR-3 fragment [13], in the series with RR-1 fragment [7] (setting [15]) and in the series with RR-2 fragment [8] (setting [15]) was “binds” throughout. The Kd with DDX3X N-IDR [14] stood at 3400 nM.
For the molecule GGCACUUCGGUGCC (structured_RNA) [FAM-14mer tetraloop], the binding result in the series with MBP-FL DDX3X [11] (label: 5'-FAM, hairpin) was “no binding”.
